The record followed here is the nanobody polyreactivity screen of Harvey et al. (2022).

This data set can be described thus: yeast display, Sf9 membrane polyspecificity reagent, FACS + sequencing; frameworks hold sequencing errors. In short, it runs like this: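 Nanobodies from a synthetic yeast display library (Saccharomyces cerevisiae BJ5465), induced 36–48 hours with galactose, were stained 1 hour at 4 °C with 10% biotinylated, detergent-solubilized Sf9 membrane reagent, enriched on streptavidin microbeads, then FACS-sorted. Anti-HA (expression) and streptavidin (reagent binding) fluorescence set low and high (top ~1%) gates. Polyreactivity labels come from the gate of origin. Genes were colony-PCR amplified, MiSeq 2 × 250 sequenced and filtered by CDR length.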
Take “QVQLEESGGGLVQAGGSLRLSCAAYGSIFSPYAMGWYRHAPGKERELVAAISGRGTSTYYADSVKGRFTISRDNAKNTVDLQMNTLKPEDTEVYYCAAVSYGRSGYDYWGQGTQVTVSS”: the “polyreactivity (PSR sort gate)” value is given as “high polyreactivity”.

Take “QVQLEESGGGLVQAGGSLRLSCADSGSTFYTNAMGWYRQAPGKERELVAAISASVGSTYYADSVKGRFTISRDNAKNTVYLQMNILKPEDTAVYYCAAYVWDSRRYDYWGQGTQVTVSS”: the “polyreactivity (PSR sort gate)” value is “low polyreactivity”.

Turning to “QVQLEESGGGLVQAGGSLRLSCAGSGGIFDVYAIGWYRPAPGKERELVAAITASGGSTYYADSVQGRFTISRDNAKNTVYFQMNSLKPEDTAGYYCAVQGFRYHSREYDYWGQGTQVTVSS”, the “polyreactivity (PSR sort gate)” value is on record as “low polyreactivity”.

As for “QVQLEESGGGLVQAGGSLRLSCAPSGFIFAWYAMGCYRQAPGKERELVATISSSGARTYYADSVKGRFTISRDNAKNTVYLQMNSLKPEDTAVYYCAVGSVGRLKFYYWGQGTQVTVSS”, the “polyreactivity (PSR sort gate)” value is reported as “high polyreactivity”.

As to “QVQLEESGGGLVQAGGSLRLSCAPSGRIYNRNAMGWYRQAPGKERELVASISSGGRTNYADSVKGRFTISRDNAKTTVYLQMNSLKPEDTAVFYCAGNSPRFLLDYWGQGTQVTVSS”, the “polyreactivity (PSR sort gate)” value is on record as “low polyreactivity”.

With “QVQLEESGGGLVQAGGSLRLSCASSGSTFATYAMGWDRQAPGKERELVAGISKRGGRTYYADSLKGRFTISRDNAKNTVYFQMNSLKPEDTAVYYCARYSPYYRVKDYDSWGQGTQVTVSS”, the “polyreactivity (PSR sort gate)” value is “high polyreactivity”.

“QVQLEESGGGLVQAGGSLRLSCASSGYIFATYAMGWYRQAPGKERELVAAITSTGSTYYADSVKGRFTISRDNAKNTVYLQMNSLKPEDTAVYYCAAVSGYRARYYLYYYWGQGTQVTVSS”: the “polyreactivity (PSR sort gate)” value was “high polyreactivity”.

In the case of “QVQLEESGGGLVQAGGSLRLSCPASGRTSYGNTMGTYRQAPGKERELVATISGGGSTNYADSVKGRFTISRDNAKNTVYLQMNSLKPEDTAVYYCAARRYPFPGYRYYFWGQGTQVTVSS”, the “polyreactivity (PSR sort gate)” value is reported as “high polyreactivity”.

Take “QVQLEESGGGLVQAGGSLRLSCSASGLILHGYAMGWYRQAPGKERELVAAITRSGGRTYYADSVKGRFTISRDNAKYTVYLQMNSLKPEDTAVYYCAALGWSGRYRYDYWGQGTQVTVSS”: the “polyreactivity (PSR sort gate)” value is reported as “high polyreactivity”.

On to “QVQLEESGGGLVQAGGSLRLSCSASGRIFSRNAMGWYRQAPGKERELVAAIRPRGGTTYYADSVKGRFTISRDNAKNTVYLQINSLKPYDTAVYYCATGGGRNSTDRRRLHYTYYYWGQGTQVTVSS”, for which the “polyreactivity (PSR sort gate)” value is given as “low polyreactivity”.

Regarding “QVQLEESGGGLVQAGGSLRLSCSASGSIFRGYAMGWYRQAPGKERELVAAITSGGRTNYADSVKGRFTISRDNAKITVYLQMNSLKPEVTAVYYWIAGFRFYAYSRIAGEDYWGQGSQVTVSS”, the “polyreactivity (PSR sort gate)” value is “low polyreactivity”.

As for “QVQLEESGGGLVQAGGSLRLSGAASGYTFGHYGMGWYRQAPGKERELVAAINSGGSTNDADSVKGRFTISRDNAKNTVYVQMNSLKPEDTAVYYCAADHSGGSRYDYWGQGTLVTVSS”, the “polyreactivity (PSR sort gate)” value was “low polyreactivity”.

As for “QVQLEESGGGLVQAGGSLRLSSAASGGIFDVSHMGWYRQAPGKERELVAAISENGGSTYYADSVKGRFTISRDNAKNTVYLLMNSLKPADTAVYYCAADYVSLSVFSYWAWYDYWGHGTQVTVSS”, the “polyreactivity (PSR sort gate)” value was “low polyreactivity”.

As to “QVQLEESGGGLVQAGGSLRLSSAASGRIYTKNAMGRYRHAPGKERELVAAITTSGGSTYYADSVKGRFTISRDNAKNSVYLQMKSLKPEDTAVYYCAAERYNGYDYWGQGTQVSVSS”, the “polyreactivity (PSR sort gate)” value is on record as “high polyreactivity”.

Turning to “QVQLEESGGGLVQAGGSLRLTCAASGSIFDYNAMGWYRQAHGKERELVAAITSGGITYADSVKGRFTISRDNAKNTVYLQMNSLKPEDTAVYYCAALDKLSKYRRYRYGYWGQGTQVTVSS”, the “polyreactivity (PSR sort gate)” value is reported as “high polyreactivity”.

Take “QVQLEESGGGLVQAGGSLRLTCAASGSTVDKNDMGWYRPEPGQESELVAASTSSGSSTYYADSVKGRFTISRDNAKNTVYLQMNSLKPEDTAVYYCAADKYYYDRLSPSGDYLGQGTQVTVSS”: the “polyreactivity (PSR sort gate)” value was “low polyreactivity”.

Turning to “QVQLEESGGGLVQAGGTLRLRCAASVIIYDDKTMGWYRQAPGKEMELVAPISSSRGSTYYADSVKGRFTISRDNAKNTVYLQMNSLKPEDTAVYYCAAAVYYTYPYIVFRNYPEFDYWGQGTQVSVSS”, the “polyreactivity (PSR sort gate)” value is given as “low polyreactivity”.

Turning to “QVQLEESGGGLVQAGGTLRLSCAASGIIFDGNAMVWYRQAPGKERELVASITSDSSTNYADSVKGRFTISRDNAKNTVYLQMNSLKPEDTAVYYCAADHWIAPRRDYWGQGSQVTVSS”, the “polyreactivity (PSR sort gate)” value is recorded as “low polyreactivity”.

Take “QVQLEESGGGLVQAGRSLRLSCAASGRIFWRYVMGWYRQAPGKERELVAAINRNGDNTSYADSVKGRFTISRDTAKNTVYLQMNSLKPEHTEVHYCNADWWWGYGYWGQGTQVSVSS”: the “polyreactivity (PSR sort gate)” value was “low polyreactivity”.

As for “QVQLEESGGGLVQAVGIIRLSCGASVSIFDAYAIGWYRKAPGKETELVASITYGGRTNYADSVEGRFTISRDNAKNTVYLQMNSLKPEDTAVYYCAAGGGYYYRYHRYPRGYWGQGTQVTVTS”, the “polyreactivity (PSR sort gate)” value was “high polyreactivity”.

In the case of “QVQLEESGGGLVQEGGSLRISCAASGRTFLRYVMGWYRQAPGKERALVAAISSRGGSTYYADSVKGRFTISRDNAKNTVYLQMNSLKPEDTAVYYCAARFKVRDYPDGNYEYWGQGTQVTVSS”, the “polyreactivity (PSR sort gate)” value is on record as “high polyreactivity”.
